Molecular target: maize RIP β-chain (second component of the gePSI), C-terminally fused to a murine ornithine decarboxylase (ODC36) degron (maize (Zea mays); murine) (UniProt P00860)
Assay: cell-based or functional assay
Conditions: scale: normalized nascent protein signal

UniProt P00860, sequence (P00860 426-461, tags or fused parts left off): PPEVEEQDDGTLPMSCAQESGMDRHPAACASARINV

maize RIP α-chain (first component of the gePSI) (from UniProt P25891 22-161) (enzyme)
nascent protein signal of gePSI-transfected neurons after 4 h dox, normalized to the mean of neighboring untransfected neurons (FIG. 1g): 0.21

From patent publication US20220220164A1
